In PMC10238197, “Deafness‐Associated ADGRV1 Mutation Impairs USH2A Stability through Improper Phosphorylation of WHRN and WDSUB1 Recruitment” (Advanced Science, 2023):

B1: Flag-WHRN (wild type) [mouse] / Myc-USH2A (usherin, aa 4819-5193) [mouse] (parent complex)
chain 1: MNAQLDGLSVSSSSTGSLGSAAAAAGGGGGAGLRLLSANVRQLHQALTALLSEPEREQFTHCLNAYHARRNVFDLVRTLRVLLDSPVKRRLLPMLRLVIPRSDQLLFDQYTAEGLYLPATTPYRQPAWAAPDGAGPGEVRLVSLRRAKAHEGLGFSIRGGSEHGVGIYVSLVEPGSLAEKEGLRVGDQILRVNDKSLARVTHAEAVKALKGSKKLVLSVYSAGRIPGGYVTNHIYTWVDPQGRSTSPPSSLPQPHGSTLRQREDDRRSTLHLLQSGDEKKVNLVLGDGRSLGLTIRGGAEYGLGIYITGVDPGSEAESSGLKVGDQILEVNGRSFLNILHDEAVKLLKSSRHLILTVKDVGRLPHARTTVDQTKWIASSRIGESVANSAGFPGDHTEEGTSKPGFYKGPAGSQVTLSSLGNQTRALLDDQARHLLTEQERATMMYYLAQYRGGTISVEAMVMALFELLNTHAKFSLLSEVRSIISPQDLDRFDHLVLRREIESMKARQPPGPGVGDTYSMVSYSDTGSSTGSHGTSTTVSSARERLLWLIDLMENTLDLEGTGETTQGSTNALPDVSVDDVKSPSEDLPGIKPPPPPPPLAQGHDRLLGQPRKPGREDPAPLSSAAHSGIVFSAPRNRSPPPGTAPTPGPSSAQDSPSSPIYASISHANPSSRKPLDTHLALVNQHPIGPFPRVQSPPHLKSPPAETPGAGACLPPPSPSEHPDAVGANQHFVLVEVHRPDSEPDVNEVRALPQTRTASTLSQLSDSGQTLSEDSGVDAGETEASTSGRGRQTASAKNKNGKEQPRTERTAEGANKPPGLLEPTSTLVRVRKSAATLGIAIEGGANTRQPLPRIVTIQRGGSAHNCGQLKVGHVILEVNGQTLRGKEHKEAARIIAEAFKTKERDYIDFLVTEFNVML
chain 2: PPSGLSPPQVQTLGSRMASVHWTPPLLPNGVIHSYELQLQRACPPDSAPRCPPSHTERKYWGPGHRASLAGLQPNTAYGVQVVAYNEAGSTASGWTNFSTKKEMPQYQALFSVDSNASMVWVDWSGTFLLNGHLKEYVVTDGGRRVYSGLDTTLYIPRMVDKIFFFQVTCTTDIGSVKTPLVQYDAATGSGLVLTTPGEKKGAGTKSTEFYSELWFIMVMAVVGLILLAIFLSLILQRKIHKEPCIRERPPLVPLQKRMTPLSVYPPGETHVGLADTRLPRSGTPMSIRSSQSVSVLRIPSQSQLSHAYSQSSLHRSVSQLMDMADKKVVTEDSLWETIMGHSSGLYVDEEELMNAIKGFSSVTKEHTAFTDTHL

Variants of: B1
Assay: co-immunoprecipitation (band intensity quantified); HEK293 cells; n = 3; parent: 1; read off a plot

| Variant | ratio to parent |
| --- | --- |
| chain 1 S156E | ~1 |
| chain 1 S85E | ~1 |
| chain 1 S246E | ~1 |
| chain 1 S384E | ~1 |
| chain 1 S37E | ~1 |
